Test results as given in patent publication US20030186281A1, “Modified tetracycline repressor protein compositions and methods of use” (priority 2001, published 2003).

Test system: tet operator sequence
Test: β-galactosidase activity of a tetracycline-regulated promoter in transformed E. coli with revTetR, in the presence and absence of anhydrotetracycline (atc)
Type: cell-based, Escherichia coli
Settings: for β-Galactosidase Activity, Cultured Without ATC: RevTetR isolate cultured in the absence of anhydrotetracycline (ATC); for β-Galactosidase Activity, Cultured With ATC: RevTetR isolate cultured in the presence of anhydrotetracycline (ATC)
In short: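 TetR(BD) chimera mutants (TetR(B) residues 1–50, TetR(D) 51–208) expressed in E. coli regulating a tet operator-controlled lacZ. β-Galactosidase measured in Miller units at 28 °C and 37 °C with and without anhydrotetracycline; reported as percent of maximal expression without Tet repressor.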

| Molecule | β-Galactosidase Activity, Cultured Without ATC | β-Galactosidase Activity, Cultured With ATC |
| --- | --- | --- |
| TetRrevAF4/13: revTetR(BD) A13A E15D L17L E19V I22I E23K R94H G95N (protein, Modified tetracycline repressor, revTetR(BD) A13A E15D L17L E19V I22I E23K R94H G95N) MSRLDKSKVINSALDLLNVVGIKGLTTRKLAQKLGVEQPTLYWHVKNKRALLDALAVEILARHHDYSLPAAGESWQSFLRNNAMSFRRALLRYHNGAKVHLGTRPDEKQYDTVETQLRFMTENGFSLRDGLYAISAVSHFTLGAVLEQQEHTAALTDRPAAPDENLPPLLREALQIMDSDDGEQAFLHGLESLIRGFEVQLTALLQIV | 98.8886 | 2.5827 |
| TetRrevAF5/3: revTetR(BD) E15G N18K R94H G96G G102V (protein, Modified tetracycline repressor, revTetR(BD) E15G N18K R94H G96G G102V) MSRLDKSKVINSALGLLKEVGIEGLTTRKLAQKLGVEQPTLYWHVKNKRALLDALAVEILARHHDYSLPAAGESWQSFLRNNAMSFRRALLRYHDGAKVHLVTRPDEKQYDTVETQLRFMTENGFSLRDGLYAISAVSHFTLGAVLEQQEHTAALTDRPAAPDENLPPLLREALQIMDSDDGEQAFLHGLESLIRGFEVQLTALLQIV | 58.5651 | 1.8337 |
| TetRrevAF5/13: revTetR(BD) L14L V20G V99E (protein, Modified tetracycline repressor, revTetR(BD) L14L V20G V99E) MSRLDKSKVINSALELLNEGGIEGLTTRKLAQKLGVEQPTLYWHVKNKRALLDALAVEILARHHDYSLPAAGESWQSFLRNNAMSFRRALLRYRDGAKEHLGTRPDEKQYDTVETQLRFMTENGFSLRDGLYAISAVSHFTLGAVLEQQEHTAALTDRPAAPDENLPPLLREALQIMDSDDGEQAFLHGLESLIRGFEVQLTALLQIV | 105.942 | 4.4642 |
| TetRrevAF6/5: revTetR(BD) V20V I22V E23D D95N H100P (protein, Modified tetracycline repressor, revTetR(BD) V20V I22V E23D D95N H100P) MSRLDKSKVINSALELLNEVGVDGLTTRKLAQKLGVEQPTLYWHVKNKRALLDALAVEILARHHDYSLPAAGESWQSFLRNNAMSFRRALLRYRNGAKVPLGTRPDEKQYDTVETQLRFMTENGFSLRDGLYAISAVSHFTLGAVLEQQEHTAALTDRPAAPDENLPPLLREALQIMDSDDGEQAFLHGLESLIRGFEVQLTALLQIV | 102.848 | 2.8572 |
| TetRrev96/99-5: revTetR(BD) G96I V99K (protein, Modified tetracycline repressor, revTetR(BD) G96I V99K) MSRLDKSKVINSALELLNEVGIEGLTTRKLAQKLGVEQPTLYWHVKNKRALLDALAVEILARHHDYSLPAAGESWQSFLRNNAMSFRRALLRYRDIAKKHLGTRPDEKQYDTVETQLRFMTENGFSLRDGLYAISAVSHFTLGAVLEQQEHTAALTDRPAAPDENLPPLLREALQIMDSDDGEQAFLHGLESLIRGFEVQLTALLQIV | 57.8391 | 17.087 |
| TetRrevAF5/5: revTetR(BD) L14V L17F V20A I22M L25F D95H (protein, Modified tetracycline repressor, revTetR(BD) L14V L17F V20A I22M L25F D95H) MSRLDKSKVINSAVELFNEAGMEGFTTRKLAQKLGVEQPTLYWHVKNKRALLDALAVEILARHHDYSLPAAGESWQSFLRNNAMSFRRALLRYRHGAKVHLGTRPDEKQYDTVETQLRFMTENGFSLRDGLYAISAVSHFTLGAVLEQQEHTAALTDRPAAPDENLPPLLREALQIMDSDDGEQAFLHGLESLIRGFEVQLTALLQIV | 100.546 | 1.6948 |
| TetRrev96/99-3: revTetR(BD) G96E V99T (protein, Modified tetracycline repressor, revTetR(BD) G96E V99T) MSRLDKSKVINSALELLNEVGIEGLTTRKLAQKLGVEQPTLYWHVKNKRALLDALAVEILARHHDYSLPAAGESWQSFLRNNAMSFRRALLRYRDEAKTHLGTRPDEKQYDTVETQLRFMTENGFSLRDGLYAISAVSHFTLGAVLEQQEHTAALTDRPAAPDENLPPLLREALQIMDSDDGEQAFLHGLESLIRGFEVQLTALLQIV | 103.749 | 31.808 |
| TetRrevAtc4-14: revTetR(BD) L51L D53Q V57V E58K L60L A61V R62P H63D (protein, Modified tetracycline repressor, revTetR(BD) L51L D53Q V57V E58K L60L A61V R62P H63D) MSRLDKSKVINSALELLNEVGIEGLTTRKLAQKLGVEQPTLYWHVKNKRALLQALAVKILVPDHDYSLPAAGESWQSFLRNNAMSFRRALLRYRDGAKVHLGTRPDEKQYDTVETQLRFMTENGFSLRDGLYAISAVSHFTLGAVLEQQEHTAALTDRPAAPDENLPPLLREALQIMDSDDGEQAFLHGLESLIRGFEVQLTALLQIV | 62.985 | 25.025 |
| TetRrev96/99-2: revTetR(BD) G99K V99A (protein, Modified tetracycline repressor, revTetR(BD) G99K V99A) MSRLDKSKVINSALELLNEVGIEGLTTRKLAQKLGVEQPTLYWHVKNKRALLDALAVEILARHHDYSLPAAGESWQSFLRNNAMSFRRALLRYRDKAKAHLGTRPDEKQYDTVETQLRFMTENGFSLRDGLYAISAVSHFTLGAVLEQQEHTAALTDRPAAPDENLPPLLREALQIMDSDDGEQAFLHGLESLIRGFEVQLTALLQIV | 94.5832 | 31.604 |
| TetRrev96/99-4: revTetR(BD) G96P V99S (protein, Modified tetracycline repressor, revTetR(BD) G96P V99S) MSRLDKSKVINSALELLNEVGIEGLTTRKLAQKLGVEQPTLYWHVKNKRALLDALAVEILARHHDYSLPAAGESWQSFLRNNAMSFRRALLRYRDPAKSHLGTRPDEKQYDTVETQLRFMTENGFSLRDGLYAISAVSHFTLGAVLEQQEHTAALTDRPAAPDENLPPLLREALQIMDSDDGEQAFLHGLESLIRGFEVQLTALLQIV | 109.291 | 32.997 |
| TetRrev96/99-7: revTetR(BD) G96L V99K (protein, Modified tetracycline repressor, revTetR(BD) G96L V99K) MSRLDKSKVINSALELLNEVGIEGLTTRKLAQKLGVEQPTLYWHVKNKRALLDALAVEILARHHDYSLPAAGESWQSFLRNNAMSFRRALLRYRDLAKKHLGTRPDEKQYDTVETQLRFMTENGFSLRDGLYAISAVSHFTLGAVLEQQEHTAALTDRPAAPDENLPPLLREALQIMDSDDGEQAFLHGLESLIRGFEVQLTALLQIV | 55.0127 | 13.224 |
| TetRrevAF5/1: revTetR(BD) L14F D95A V99G (protein, Modified tetracycline repressor, revTetR(BD) L14F D95A V99G) MSRLDKSKVINSAFELLNEVGIEGLTTRKLAQKLGVEQPTLYWHVKNKRALLDALAVEILARHHDYSLPAAGESWQSFLRNNAMSFRRALLRYRAGAKGHLGTRPDEKQYDTVETQLRFMTENGFSLRDGLYAISAVSHFTLGAVLEQQEHTAALTDRPAAPDENLPPLLREALQIMDSDDGEQAFLHGLESLIRGFEVQLTALLQIV | 100.053 | 1.072 |
| TetRrev96/99-6: revTetR(BD) G96N V99Q (protein, Modified tetracycline repressor, revTetR(BD) G96N V99Q) MSRLDKSKVINSALELLNEVGIEGLTTRKLAQKLGVEQPTLYWHVKNKRALLDALAVEILARHHDYSLPAAGESWQSFLRNNAMSFRRALLRYRDNAKQHLGTRPDEKQYDTVETQLRFMTENGFSLRDGLYAISAVSHFTLGAVLEQQEHTAALTDRPAAPDENLPPLLREALQIMDSDDGEQAFLHGLESLIRGFEVQLTALLQIV | 103.602 | 28.364 |
| TetRrevAtc4-16: revTetR(BD) D53N A54G V57F I59S L60F (protein, Modified tetracycline repressor, revTetR(BD) D53N A54G V57F I59S L60F) MSRLDKSKVINSALELLNEVGIEGLTTRKLAQKLGVEQPTLYWHVKNKRALLNGLAFESFARHHDYSLPAAGESWQSFLRNNAMSFRRALLRYRDGAKVHLGTRPDEKQYDTVETQLRFMTENGFSLRDGLYAISAVSHFTLGAVLEQQEHTAALTDRPAAPDENLPPLLREALQIMDSDDGEQAFLHGLESLIRGFEVQLTALLQIV | 104.174 | 16.914 |
| TetRrevAF6/1: revTetR(BD) A13A E19V V20A D95I G96G (protein, Modified tetracycline repressor, revTetR(BD) A13A E19V V20A D95I G96G) MSRLDKSKVINSALELLNVAGIEGLTTRKLAQKLGVEQPTLYWHVKNKRALLDALAVEILARHHDYSLPAAGESWQSFLRNNAMSFRRALLRYRIGAKVHLGTRPDEKQYDTVETQLRFMTENGFSLRDGLYAISAVSHFTLGAVLEQQEHTAALTDRPAAPDENLPPLLREALQIMDSDDGEQAFLHGLESLIRGFEVQLTALLQIV | 72.8186 | 3.7966 |
| TetRrev96/99-1: revTetR(BD) G96H V99R (protein, Modified tetracycline repressor, revTetR(BD) G96H V99R) MSRLDKSKVINSALELLNEVGIEGLTTRKLAQKLGVEQPTLYWHVKNKRALLDALAVEILARHHDYSLPAAGESWQSFLRNNAMSFRRALLRYRDHAKRHLGTRPDEKQYDTVETQLRFMTENGFSLRDGLYAISAVSHFTLGAVLEQQEHTAALTDRPAAPDENLPPLLREALQIMDSDDGEQAFLHGLESLIRGFEVQLTALLQIV | 58.4545 | 25.484 |
